{
  "source": "patent US10385103B2",
  "about": "“Cell-permeable (ICP)-SOCS3 recombinant protein and uses thereof” (CELLIVERY THERAPEUTICS, INC., priority 2014, dated 2019)",
  "molecules": {"B1": {"name": "HM165S3B: His-tagged recombinant protein of aMTD165, human SOCS3 and solubilization domain B; prototype improved cell-permeable SOCS3 (protein)", "chain": "MGSSHHHHHHSSGLVPRGSHMALAVPVALAIVPVTHSKFPAAGMETSRPLDTSLRLKTFSSKSEYQLVVNAVRKLQESGFYWSAVTGGEANLLLSAEPAGTFLIRDSSDQRHFFTLSVKTQSGTKNLRIQCEGGSFSLQSDPRSTQPVPRFDCVLKLVHHYMETPPPGAPSFPSPPTEPSSEVPEQPSAQPLPGSPPRRAYYIYSGGEKIPLVLSRPLSSNVATLQHLCRKTVNGHLDSYEKVTQLPGPIREFLDQYDAPLGSMAEQSDKDVKYYTLEEIQKHKDSKSTWVILHHKVYDLTKFLEEHPGGEEVLGEQAGGDATENFEDVGHSTDARELSKTYIIGELHPDDRSKIAKPSETL", "modifications": "Amino acid sequence of HM165S3B"}},
  "key": {"[1]": {"tested_on": "PANC-1-Luc cells", "test": "Tumor targeting in orthotopic pancreatic cancer xenograft model (Alexa680 imaging)", "format": "in vivo, Balb/c nu/nu mice", "details": "IV 40 mg/kg Alexa680-labeled protein; listed as iCP-SOCS3, 40 mg/kg", "method": "Tumor-targeting of the anticancer agent iCP-SOCS3 (HM165S3B) recombinant proteins was investigated in an orthotopic xenograft model. The protocol was adapted from World J Gastroenterol. 2014 Jul. 28; 20(28): 9476-9485. […] After 7 weeks, the mice were IP injected with 100 μl of luciferin (Sigma-Aldrich, St. Louis, Mo., USA) and imaged by Xenogen IVIS-200 imaging system 15 minute later. As shown in FIG. 88 (A), pancreatic cancer model was well established.\nThe iCP-SOCS3 recombinant proteins were labeled and IV injected to the mice with 40 mg/kg according to a manual of Alexa680 kit (Thermo Fisher Scientific, San Jose, Calif., USA)."}, "[2]": {"tested_on": "STAT3", "test": "Cell-to-cell function: phospho-STAT3 in PANC-1 cells seeded with protein-treated RAW 264.7 cells (western blot)", "format": "cell-based", "details": "RAW 264.7 treated with 5 μM protein 2 hour, seeded on PANC-1, 20 ng/ml IFN-γ 15 minutes", "method": "For this, RAW 264.7 cells were treated with 5 μM of FITC-labeled HM165S3B, HTS3B for 2 hour and washed with PBS two times. Thereafter, they were seeded on PANC-1 cell, incubated for 2 hours and treated with 20 ng/ml of IFN-γ for 15 minutes, followed by Western blotting in the same manner as in Example 8-1. And Cell-to-cell protein transfer was assessed by flow cytometry."}, "[3]": {"tested_on": "tumor tissues (Hep3B CDX, HepG2 CDX)", "test": "Biomarker expression in xenograft tumor tissues (RT-PCR, Western blotting, IHC)", "format": "in vivo, Balb/c nu/nu mice", "method": "Tumor tissues were finely minced using a homogenizer according to the manufacturer's protocol of Hybrid-R (geneall, Korea), and then mRNA was isolated therefrom. 1 ug of mRNA thus separated was used to synthesize cDNA using an Accupower RT Premix (Bioneer, Korea). PCR was performed using 2 ul of cDNA and the primers of Table 45. PCR was performed using an Accupower PCR Premix (Bioneer, Korea) for 30 cycles consisting of denaturing (95° C.), annealing (60° C.), and extending (72° C.) for 45 seconds each.\nImmunohistochemistry (IHC) Tissue samples were fixed in 4% Paraformaldehyde (Duksan, South Korea) for 3 days, dehydrated, cleared with xylene and embedded in Paraplast. Sections (6 μm thick) of tumor were placed onto poly-L-lysine coated slides. To block endogenous peroxidase activity, sections were incubated for 15 min with 3% H2O2 in methanol. After washing three times with PBS, slides were incubated for 30 min with blocking solution (5% fetal bovine serum in PBS). Mouse anti-Bax antibody (sc-7480, Santa Cruz Biotechnology, SantaCruz, Calif., USA) and rabbit anti-VEGF (ab46154, Abcam, Cambridge, UK) were diluted 1:1000 (to protein concentration 0.1 μg/ml) in blocking solution, applied to sections, and incubated at 4° C. for 24 hrs. After washing three times with PBS, sections were incubated with biotinylated mouse and rabbit IgG (Vector Laboratories, Burlingame, Calif., USA) at a 1:1000 dilution for 1 hr at room temperature, then incubated with avidin-biotinylated peroxidase complex using a Vectorstain ABC Kit (Vector Laboratories, Burlingame, Calif., USA) for 30 min at room temperature. After the slides are reacted with oxidized 3, 3-diaminobenzidine as a chromogen, they were counterstained with Harris hematoxylin (Sigma-Aldrich, USA). Permanently mounted slides were observed and photographed using a microscope equipped with a digital imaging system (ECLIPSE Ti, Nikon, Japan).\nmRNA levels were analyzed using the tumor tissues removed at 2 weeks (Hep3B CDX, day 35) or 3 weeks (HepG2 CDX, day 42) after termination of drug administration to analyze changes in expressions of major biomarker genes by iCP-SOCS3.\nFurther, tumors removed at 2 weeks (Hep3B CDX, day 35) or 3 weeks (HepG2 CDX, day 42) after termination of drug administration were used to perform Western blotting and IHC, and increase or decrease in the expressions of cancer activity regulating factors by iCP-SOCS3 was observed."}, "[4]": {"test": "Bioavailability of FITC-labeled SOCS3 recombinant proteins after IV injection (PBMCs, splenocytes, hepatocytes, tissue sections)", "format": "in vivo, ICR mice", "method": "To investigate BA of the iCP-SOCS3 (HM165S3B) recombinant proteins, ICR mice (Doo-Yeol Biotech Co. Ltd., Seoul, Korea) were intravenous (IV) injected with 600 μg/head of 10 μM FITC (Fluorescein isothiocyanate, SIGMA, USA)-labeled SOCS3 recombinant proteins (HS3B, HM165S3B) and after 15 min, 30 min, 1H, 2H, 4H, 8H, 12H, 16H, 24H, 36H, 48H, mice of each group were sacrificed. From the mice, peripheral blood mononuclear cells (PBMCs), splenocytes, and hepatocytes were separated.\nFurther, the spleen was removed and washed with PBS, and then placed on a dry ice and embedded in an O.C.T. compound (Sakura). After cryosectioning at 20 μm, tissue distributions of fluorescence-labeled-SOCS3 proteins in different organs was analyzed by fluorescence microscopy (Carl Zeiss, Gottingen, Germany).\nAfter anesthesia with ether, ophthalmectomy was performed and the blood was collected therefrom using a 1 ml syringe. The collected blood was immediately put in an EDTA tube and mixed well. The blood was centrifuged at 4,000 rpm and 4° C. for 5 minutes, and plasma was discarded and only buffy coat was collected in a new microtube. 0.5 ml of RBC lysis buffer (Sigma) was added thereto, followed by vortexing. The microtube was left at room temperature for 5 minutes, and then centrifuged at 4,000 rpm and 4° C. for 5 minutes. 0.3 ml of PBS was added to a pellet, followed by pipetting and flow cytometry (FlowJo cytometric analysis software, Guava, Millipore, Darmstadt, Germany).\nMice were laparotomized and the spleen or liver were removed. The spleen or liver thus removed was separated into single cells using a Cell Strainer (SPL, Korea). These cells were collected in a microtube, followed by centrifugation at 4,000 rpm and 4° C. for 5 minutes. 0.5 ml of RBC lysis buffer was added thereto, followed by vortexing. The microtube was left at room temperature for 5 minutes, and then centrifuged at 4,000 rpm and 4° C. for 5 minutes. 0.5 ml of PBS was added to a pellet, followed by pipetting and flow cytometry (FlowJo cytometric analysis software, Guava, Millipore, Darmstadt, Germany)."}, "[5]": {"details": "day 35 (Hep3B CDX) or day 42 (HepG2 CDX)"}, "[6]": {"details": "IV 600 μg/head FITC-labeled protein"}},
  "note": "“Also recorded” adds a separate entry of the source.",
  "data": [
    {"molecule": "B1", "values": [
      {"measurement": "biodistribution / tumor accumulation", "setting": "[1]", "result": "delivered to every part of the body at 5 minutes; also recorded: a large amount of the proteins were accumulated only in tumor"},
      {"measurement": "phospho-STAT3 (cell-to-cell function)", "setting": "[2]", "result": "reduced"},
      {"measurement": "expression of Bax in tumor tissues", "setting": "[3]; Western blotting and IHC", "result": "increased"},
      {"measurement": "expression of Bcl-2 in tumor tissues", "setting": "[3]; Western blotting and IHC", "result": "decreased"},
      {"measurement": "expression of VEGF in tumor tissues", "setting": "[3]; Western blotting and IHC", "result": "remarkably decreased"},
      {"measurement": "expression of p21 in tumor tissues", "setting": "[3]; Western blotting and IHC", "result": "increased"},
      {"measurement": "expression of GOLPH2 in tumor tissues", "setting": "[3]; [5]", "result": "remarkably reduced"},
      {"measurement": "mRNA expressions of Bax, cyclinD1, cyclinE, PCNA, VEGF, FAK-related genes in tumor tissues", "setting": "[3]; [5]", "result": "significantly regulated"},
      {"measurement": "time maintained in tissues, depending on the tissues", "setting": "[4]; IV", "result": "8 to 16", "unit": "h"},
      {"measurement": "time of delivery from blood to various tissues", "setting": "[4]; IV", "result": "≤ 2", "unit": "h"},
      {"measurement": "distribution in pancreas tissue maintained up to", "setting": "[4]; [6]", "result": "up to 8 hours"},
      {"measurement": "permeability in hepatocytes maintained up to", "setting": "[4]; [6]", "result": "up to 16 hours"},
      {"measurement": "permeability in splenocytes maintained up to", "setting": "[4]; [6]", "result": "up to 16 hours"},
      {"measurement": "time of maximum permeability in PBMCs", "setting": "[4]; [6]", "result": 30, "unit": "min"},
      {"measurement": "time of maximum permeability in hepatocytes", "setting": "[4]; [6]", "result": 15, "unit": "min"},
      {"measurement": "time of maximum permeability in splenocytes", "setting": "[4]; [6]", "result": 2, "unit": "h"},
      {"measurement": "time of very high distribution in pancreas tissue", "setting": "[4]; [6]", "result": 2, "unit": "h"}
    ]}
  ]
}
